The text below walks through data of paper PMC3458557.

B1: petB 3' UTR (ssRNA)
RNA: GACUGAAGCUAACUUUGGUUGGUUAAUCCGAUCAGUUCAUCGAUGGUCGGCAAGUAUGAUGGUCCUAAUG
B2: petB 5' UTR (ssRNA)
RNA: GGUAGUUCGACCGCGAAAUUUUUUUCUGCAUUGUAUAUUUCCGGAAUAUGAGUGUGUGACUUGUUAGAAU
B3: 23S-4.5Sa dsRNA (dsRNA)
RNA 1: UUCCUCUAUUUGUUCGAUAGGGGAGAUUCCGACUUCCCCAGAGCCUCCGGUAGCACAGCCGAGACAGCAACGGGUUCUCCGCCCCUGCGGGGAUG
RNA 2: CAUCCCCGCAGGGGCGGAGAACCCGUUGCUGUCUCGGCUGUGCUACCGGAGGCUCUGGGGAAGUCGGAAUCUCCCCUAUCGAACAAAUAGAGGAA

This data set has as its target T1, GST-Rho-N-Strep (RHON1 C-terminal Rho-N domain) (Arabidopsis thaliana, UniProt Q94K75 362-401).
T1 chain: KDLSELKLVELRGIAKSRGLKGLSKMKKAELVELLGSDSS
The experiment in a line: EMSA. (In general: In EMSA bound probe runs differently from free probe, usually more slowly.)
Regarding B1, the binding result is given as “binds”.

On to UUCUAGUACAACUAUUGCAGUAGAAUGACAA (ssRNA) [petA 5' UTR 31-mer], for which the binding result is recorded as “no binding”. Consider B2, for which the binding result is reported as “binds”. With B3, the binding result was “no binding”.
